Numbering of substitutions follows the chain as printed. Each block holds one molecule with its values, some of them ahead of it.
What was measured:
Experiment in all cases: flow cytometry, CHO-K1; sub-column 1 of 2
[1] = target: T1, H60A
T1 construct: also called hCD27 H60A
T1 receptor: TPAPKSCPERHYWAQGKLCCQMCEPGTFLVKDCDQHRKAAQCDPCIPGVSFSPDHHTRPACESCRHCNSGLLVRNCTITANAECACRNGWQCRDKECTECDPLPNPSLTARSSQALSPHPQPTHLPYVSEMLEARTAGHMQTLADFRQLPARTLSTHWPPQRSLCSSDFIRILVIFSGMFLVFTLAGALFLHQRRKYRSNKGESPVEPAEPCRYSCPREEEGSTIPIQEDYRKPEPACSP

[2] = target: T2, R87A
T2 construct: also called hCD27 R87A
T2 receptor: T1 receptor with A60H, R87A

[3] = target: T3, V30A
T3 construct: also called hCD27 V30A
T3 receptor: T1 receptor with V30A, A60H

[4] = target: T4, F28A
T4 construct: also called hCD27 F28A
T4 receptor: T1 receptor with F28A, A60H

[5] = target: T5, K38A
T5 construct: also called hCD27 K38A
T5 receptor: T1 receptor with K38A, A60H

[6] = target: T6, R10A
T6 construct: also called hCD27 R10A
T6 receptor: T1 receptor with R10A, A60H

[7] = target: T7, S63A
T7 construct: also called hCD27 S63A
T7 receptor: T1 receptor with A60H, S63A

[8] = target: T8, K31A
T8 construct: also called hCD27 K31A
T8 receptor: T1 receptor with K31A, A60H

[9] = target: T9, Q91A
T9 construct: also called hCD27 Q91A
T9 receptor: T1 receptor with A60H, Q91A

[10] = target: T10, W90A
T10 construct: also called hCD27 W90A
T10 receptor: T1 receptor with A60H, W90A

% of WT hCD27 binding (geo mean FITC) [1]: 167%
% of WT hCD27 binding (geo mean FITC) [2]: 143%
% of WT hCD27 binding (geo mean FITC) [3]: 161%
% of WT hCD27 binding (geo mean FITC) [4]: 113%
% of WT hCD27 binding (geo mean FITC) [5]: 104%
% of WT hCD27 binding (geo mean FITC) [6]: 107%
% of WT hCD27 binding (geo mean FITC) [7]: 158%
% of WT hCD27 binding (geo mean FITC) [8]: 194%
% of WT hCD27 binding (geo mean FITC) [9]: 146%
% of WT hCD27 binding (geo mean FITC) [10]: 123%
Molecule: 1A4 (mouse IgG1) (antibody)

% of WT hCD27 binding (geo mean FITC) [1]: 185%
% of WT hCD27 binding (geo mean FITC) [2]: 153%
% of WT hCD27 binding (geo mean FITC) [3]: 166%
% of WT hCD27 binding (geo mean FITC) [4]: 115%
% of WT hCD27 binding (geo mean FITC) [5]: 44.7%
% of WT hCD27 binding (geo mean FITC) [6]: 104%
% of WT hCD27 binding (geo mean FITC) [7]: 153%
% of WT hCD27 binding (geo mean FITC) [8]: 207%
% of WT hCD27 binding (geo mean FITC) [9]: 149%
% of WT hCD27 binding (geo mean FITC) [10]: 130%
Molecule: 9F4 (mouse IgG2a) (antibody)

% of WT hCD27 binding (geo mean FITC) [1]: 178%
% of WT hCD27 binding (geo mean FITC) [2]: 153%
% of WT hCD27 binding (geo mean FITC) [3]: 170%
% of WT hCD27 binding (geo mean FITC) [4]: 106%
% of WT hCD27 binding (geo mean FITC) [5]: 48.2%
% of WT hCD27 binding (geo mean FITC) [6]: 103%
% of WT hCD27 binding (geo mean FITC) [7]: 162%
% of WT hCD27 binding (geo mean FITC) [8]: 203%
% of WT hCD27 binding (geo mean FITC) [9]: 148%
% of WT hCD27 binding (geo mean FITC) [10]: 126%
B1: Antibody hCD27.131A (mouse parental 131A) (antibody, V domains shown)
VH: QIQLVQSGPELKKPGETVKISCKASGYTFTNYGMNWVKQAPGKGLKWMGWINTNTGEPTYAEEFKGRFAFSLETSATTAYLQINNLKNEDTATYFCAREGDAMDYWGQGTSVTVSS
VL: QIVLTQSPAIMSASPGEKVTMTCSASSSVSYMHWYQQKSGTSPKRWIYDTSKLASGVPARFSGSGSGTSYSLTISSMEAEDAATYYCQQWNSYPFTFGSGTKLEIK
notes: mouse IgG1; also called mouse hCD27.131A
